Assay results: article PMC6741145

Molecular target: His6‐tagged DP1 (small subunit of DNA polymerase D) of Thermococcus sp. 4557 (Thermococcus sp. 4557)
Experiment: SEC; 100 µg of each protein or mixture on Superdex‐200 HR10/30 in 25 mM Tris‐HCl pH 7.5, 100 mM NaCl, 10% glycerol; fractions on SDS–PAGE, Coomassie

His6‐tagged DP1 (small subunit of DNA polymerase D) of Thermococcus sp. 4557 (enzyme)
stoichiometry N: 2
